PMC2855162 (Molecular cell, 2010)

T1: His-Smt3-TRAF1 (human)
T1 sequence (Q13077 whole entry, looked up): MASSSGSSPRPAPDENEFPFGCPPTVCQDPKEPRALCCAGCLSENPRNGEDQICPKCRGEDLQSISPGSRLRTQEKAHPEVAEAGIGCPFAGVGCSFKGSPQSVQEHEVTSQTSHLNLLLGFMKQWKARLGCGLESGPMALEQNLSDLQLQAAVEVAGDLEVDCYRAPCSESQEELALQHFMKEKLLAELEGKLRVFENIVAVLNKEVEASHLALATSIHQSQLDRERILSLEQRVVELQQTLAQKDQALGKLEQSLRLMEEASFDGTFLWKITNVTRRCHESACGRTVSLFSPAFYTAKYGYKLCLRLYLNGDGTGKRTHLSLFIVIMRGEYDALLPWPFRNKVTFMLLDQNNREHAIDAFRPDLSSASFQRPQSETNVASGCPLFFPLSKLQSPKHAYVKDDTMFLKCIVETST

T2: TRAF2 construct containing residues 266-329 (human, UniProt Q12933 266-329)
T2 sequence (looked up): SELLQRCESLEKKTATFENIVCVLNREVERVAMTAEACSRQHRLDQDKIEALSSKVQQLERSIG

B1: His-TRAF2 (domain or fragment, human)
chain: SELLQRCESLEKKTATFENIVCVLNREVERVAMTAEACSRQHRLDQDKIEALSSKVQQLERSIGL
B2: cIAP2 BIR1 domain (residues 26-99), non-tagged (domain or fragment, human, UniProt Q13489 26-99, looked up)
chain: LSCELYRMSTYSTFPAGVPVSERSLARAGFYYTGVNDKVKCFCCGLMLDNWKRGDSPTEKHKKLYPSCRFVQSL
B3: untagged TRAF1 (co-expressed with His-tagged TRAF2 and cIAP2) (domain or fragment, human)
chain: FMKEKLLAELEGKLRVFENIVAVLNKEVEASHLALATSIHQSQLDRERILSLEQRVVELQQTLA

What was measured:
[1] = biological target: T1, His-Smt3-TRAF1 (human); assay: SEC-MALS
[2] = biological target: the molecule itself; assay: SEC-MALS
[3] = biological target: T2, TRAF2 construct containing residues …; assay: SEC-MALS
[4] = biological target: B1; assay: pull-down

Molecule: His-Smt3-TRAF1 (domain or fragment)
- stoichiometry N [1]: 3

Molecule: B1
- stoichiometry N (TRAF2 per TRAF1) [1]: 2
- stoichiometry N [2]: 3

Molecule: B2
- stoichiometry N [3]: 3 TRAF2 molecules per cIAP2 BIR1 molecule

Molecule: B3
- stoichiometry N [4]: ~2 TRAF2 per TRAF1
